Like-named read-outs stand apart in the source and are kept apart here. One block for each molecule: values may come before it.
Legend:
[1] = Exatecan in plasma, 0.25 mg/kg iv infusion 30 min
Method: 24 common cynomolgus monkeys aged 3-5 years (half male and half female) were adopted and randomly divided into 4 groups, and each group consisted of 3 female animals and 3 male animals. […] Blood samples were collected until 504 hours after the end of the administration. The major pharmacokinetic parameters, i.e., AUC(0-t), AUC(0-∞), T1/2, Cmax, Tmax, CL, MRT, etc., were calculated from the plasma concentration data with a non-compartmental model using Phoenix WinNonlin® 7.0 software.

[2] = biological target: Mouse FOLR1 (Mus musculus, UniProt P35846); assay: ELISA species specificity of antibodies; format: binding; conditions: coated antigen mouse FOLR1
Mouse FOLR1, sequence (P35846 25-232): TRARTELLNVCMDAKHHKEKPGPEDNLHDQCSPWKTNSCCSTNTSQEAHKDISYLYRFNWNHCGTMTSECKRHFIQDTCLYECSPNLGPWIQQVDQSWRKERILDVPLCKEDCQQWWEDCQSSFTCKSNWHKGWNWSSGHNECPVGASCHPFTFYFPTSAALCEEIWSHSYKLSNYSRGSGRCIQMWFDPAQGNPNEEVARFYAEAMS
Method: (§1) Each antigen was diluted to 1 μg/mL with PBS and added to a microplate (manufacturer: Corning, Catalog No.: 42592) in a volume of 100 μL per well, and the microplate was coated overnight in a refrigerator (2-8° C.). The coating solution was discarded, and 200 μL of a blocking solution (containing 5% skimmed milk powder, prepared from PBS) was added. The microplate was left to stand in an electric thermostatic incubator at 37° C. for 2 h. The blocking solution was discarded, and the microplate was washed 3 times with 0.05% PBST. Antibody dilutions at different concentrations (at an initial concentration of 6 μg/mL, 3-fold dilution, 8 concentration gradients in total, diluted with PBS) were added at 100 μL per well. The microplate was left to stand in the electric thermostatic incubator at 37° C. for 2 h. The antibody dilutions were discarded, and the microplate was washed 8 times with 0.05% PBST and patted dry. Anti-Human Kappa Light Chains (Bound and Free) peroxidase antibody Produced in goat (manufacturer: sigma, Catalog No.: A7164-1ML) diluted in a 1:10000 ratio was added at 100 µL/well. The microplate was left to stand in the electric thermostatic incubator at 37° C. for 1 h. […] The microplate was read on SpectraMax Plus Absorbance Microplate Reader with an absorption light wavelength of 450 nm.

[3] = biological target: Rat FOLR1 (Rattus norvegicus, UniProt Q9JL02); assay: ELISA species specificity of antibodies; format: binding; conditions: coated antigen rat FOLR1
Rat FOLR1, sequence (Q9JL02 20-255): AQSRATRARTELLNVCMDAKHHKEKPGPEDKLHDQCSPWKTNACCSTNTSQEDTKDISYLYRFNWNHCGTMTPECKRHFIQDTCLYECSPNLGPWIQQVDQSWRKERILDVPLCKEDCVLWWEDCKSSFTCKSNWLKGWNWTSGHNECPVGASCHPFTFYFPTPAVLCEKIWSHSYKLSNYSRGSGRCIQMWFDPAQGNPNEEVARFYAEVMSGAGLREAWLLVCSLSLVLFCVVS
Method: as §1

[4] = biological target: T1, Mouse FOLR1 (manufacturer: Acro, Catalog No.: F01-M5225) (mouse, UniProt P35846 25-232); assay: ELISA, antigen coated at 1 µg/mL
T1 construct: Bought reagent
T1 sequence (P35846 25-232 limits assumed): as the sequence (P35846 25-232) above
Method: (§2) Each antigen was diluted to 1 μg/mL with PBS and added to a microplate (manufacturer: Corning, Catalog No.: 42592) in a volume of 100 μL per well, and the microplate was coated overnight in a refrigerator (2-8° C.). The coating solution was discarded, and 200 μL of a blocking solution (containing 5% skimmed milk powder, prepared from PBS) was added. The microplate was left to stand in an electric thermostatic incubator at 37° C. for 2 h. The blocking solution was discarded, and the microplate was washed 3 times with 0.05% PBST. Antibody dilutions at different concentrations (at an initial concentration of 6 μg/mL, 3-fold dilution, 8 concentration gradients in total, diluted with PBS) were added at 100 μL per well. The microplate was left to stand in the electric thermostatic incubator at 37° C. for 2 h. The antibody dilutions were discarded, and the microplate was washed 8 times with 0.05% PBST and patted dry. Anti-Human Kappa Light Chains (Bound and Free) peroxidase antibody Produced in goat (manufacturer: sigma, Catalog No.: A7164-1ML) diluted in a 1:10000 ratio was added at 100 µL/well. The microplate was left to stand in the electric thermostatic incubator at 37° C. for 1 h. The antibody dilutions were discarded, and the microplate was washed 8 times with 0.05% PBST and patted dry. Single-component TMB substrate solution I (manufacturer: Huzhou InnoReagents Co., Ltd.; Catalog No.: TMB-S-001) was added at 100 μL/well, and the microplate was left to stand in the electric thermostatic incubator at 37° C. for 10 min in the dark. 0.1 M H₂SO₄ was added at 100 μL/well to terminate the reaction.

[5] = biological target: T2, Rat FOLR1 (manufacturer: sino Biological, Catalog No.: 81073-R08NO0507) (rat, UniProt G3V8M6 25-232); assay: ELISA, antigen coated at 1 µg/mL
T2 construct: Bought reagent
T2 sequence (G3V8M6 entry or part of it limits assumed): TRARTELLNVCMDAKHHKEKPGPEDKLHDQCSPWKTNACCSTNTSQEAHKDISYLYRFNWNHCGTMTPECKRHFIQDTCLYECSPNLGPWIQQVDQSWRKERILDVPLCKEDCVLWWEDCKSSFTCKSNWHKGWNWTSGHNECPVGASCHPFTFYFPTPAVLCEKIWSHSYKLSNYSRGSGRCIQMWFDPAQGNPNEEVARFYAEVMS
Method: as §2

[6] = biological target: T3, antigen FRα-His (human FRα extracellular domain with C-terminal 8×HIS tag) (human, UniProt P15328 25-233); assay: ELISA, antigen coated at 1 µg/mL, antibody titrated
T3 construct: The entry still carries the N-terminal signal peptide; Expressed in CHO-K1 cells; also called FOLR1
T3 sequence (P15328 other isoform, or with tags, fused parts or gaps limits assumed): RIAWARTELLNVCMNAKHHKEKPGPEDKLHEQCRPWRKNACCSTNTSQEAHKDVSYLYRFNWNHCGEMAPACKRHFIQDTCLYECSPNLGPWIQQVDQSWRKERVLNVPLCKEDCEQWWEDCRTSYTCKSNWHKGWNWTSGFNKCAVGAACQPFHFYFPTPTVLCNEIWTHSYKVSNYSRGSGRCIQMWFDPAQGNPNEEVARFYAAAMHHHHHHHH
Method: as §2

[7] = biological target: T4, Cynomolgus monkey FOLR1 (manufacturer: Acro, Catalog No.: F01-C52H8) (cynomolgus monkey, UniProt A0A2K5U044 25-233); assay: as above
T4 construct: Bought reagent
T4 sequence (A0A2K5U044 entry or part of it): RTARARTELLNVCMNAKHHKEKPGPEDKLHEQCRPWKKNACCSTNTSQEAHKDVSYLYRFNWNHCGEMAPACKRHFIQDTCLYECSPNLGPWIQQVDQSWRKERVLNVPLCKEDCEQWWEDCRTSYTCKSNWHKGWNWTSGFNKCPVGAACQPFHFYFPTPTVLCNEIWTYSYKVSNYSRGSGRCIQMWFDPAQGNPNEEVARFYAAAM
Method: as §2

[8] = biological target: T5, FOLR2 (purchased from Acro, Catalog No. FO2-H5223) (UniProt P14207 17-228); assay: SPR (Biacore T200), antibody captured on Protein A chip, antigen as analyte
T5 construct: Bought reagent; also called folate receptor β
T5 sequence (P14207 17-228 limits assumed): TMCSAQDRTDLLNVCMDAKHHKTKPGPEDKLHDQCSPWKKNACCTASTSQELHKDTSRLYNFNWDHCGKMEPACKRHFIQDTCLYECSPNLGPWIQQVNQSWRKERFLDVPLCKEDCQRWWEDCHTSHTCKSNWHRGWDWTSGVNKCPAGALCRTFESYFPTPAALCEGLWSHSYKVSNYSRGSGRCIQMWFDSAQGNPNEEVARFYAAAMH
Method: (§3) A Protein A chip was used for the assay.
(§4) Experiment results were analyzed using data analysis software Evaluation Software 3.1. The sensing signals acquired from the experimental flow channels for the samples were subjected to double subtraction (minus values of reference flow channels and blank control), and the fitting was performed using a “1:1” kinetic model to obtain the kinetic parameters (Ka: association rate; Kd: dissociation rate; KD: equilibrium dissociation constant) for the binding of each sample to the antigens.

[9] = biological target: T6, FOLR3 (purchased from R&D, Catalog No. 5319-FR-050) (UniProt P41439 23-245, limits assumed); assay: as above
T6 construct: Bought reagent; also called folate receptor γ
T6 sequence (P41439 23-245 limits assumed): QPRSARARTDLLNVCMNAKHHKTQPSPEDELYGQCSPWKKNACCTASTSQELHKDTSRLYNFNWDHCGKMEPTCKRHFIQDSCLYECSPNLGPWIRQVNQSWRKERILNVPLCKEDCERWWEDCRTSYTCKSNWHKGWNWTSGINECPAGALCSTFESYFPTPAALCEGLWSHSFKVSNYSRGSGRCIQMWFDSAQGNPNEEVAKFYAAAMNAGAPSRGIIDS
Method: as §3, §4

[10] = biological target: T3, antigen FRα-His (human FRα …); assay: SPR (Biacore T200), antibody captured on Protein A chip, antigen as analyte, 1:1 model
Method: as §3, §4

[11] = biological target: T7, folate receptor α (FRα) on FRα-positive cells (JEG-3, MCF-7) (UniProt P15328 25-234, limits assumed); assay: flow cytometry on JEG-3 cells
T7 construct: whole, on cells; also called JEG-3 cells; JEG3 cells
T7 sequence (P15328 25-234 limits assumed): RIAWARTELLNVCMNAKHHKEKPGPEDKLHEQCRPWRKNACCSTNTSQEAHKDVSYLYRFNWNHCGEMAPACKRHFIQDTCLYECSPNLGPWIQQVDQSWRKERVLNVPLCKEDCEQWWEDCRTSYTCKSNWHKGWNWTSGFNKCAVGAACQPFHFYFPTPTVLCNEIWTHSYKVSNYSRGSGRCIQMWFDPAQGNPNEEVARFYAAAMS

[12] = biological target: T3, antigen FRα-His (human FRα …); assay: SPR (Biacore T200), drug captured on Protein A chip, FRα-His as analyte, 1:1 model
Method: as §3, §4

[13] = biological target: T3, antigen FRα-His (human FRα …); assay: SPR (Biacore T200), antibody captured on Protein A chip, antigen as analyte, 1:1 model; Table 7 experiment (antigen specificity, FOLR1/FOLR2/FOLR3)
Method: as §3, §4

Molecule: (1S,9S)-1-amino-9-ethyl-5-fluoro-9-hydroxy-4-methyl-1,2,3,9,12,15-hexahydro-10H,13H-benzo[3′,4′:6,7]indoline[1,2-b]quinoline-10,13-dione methanesulfonate [Exatecan Mesylate]
- AUC(0-t) ([1]; female): 155.05 ng·h/mL
- Cmax ([1]; female): 237.567 ng/mL
- Tmax ([1]; female): 30 min
- AUC(0-t) ([1]; male): 231.77 ng·h/mL
- Cmax ([1]; male): 349.808 ng/mL
- Tmax ([1]; male): 30 min

B2: Antibody 1 (humanized anti-FRα antibody) (antibody, human IgG1, kappa, V domains shown)
VH: QVQLVQSGVEVKKPGASVKVSCKASGYSFTGYFMNWVRQAPGQGLEWIGRIHPYDGDTFYNQNFKDKATLTVDKSTTTAYMELKSLQFDDTAVYYCTRYDGSRAMDYWGQGTTVTVSS
VL: EIVLTQSPATLSLSPGERATLSCKASQSVSFAGTSLMHWYQQKPGQAPRLLIYRASNLEAGVPARFSGSGSKTDFTLTISSLEPEDFAVYYCQQSREYPYTFGGGTKVEIKR
notes: also called anti-FRα antibody No. 1
- EC50 [11]: 1400 pM
- binding result [4]: no binding (tested: antibody up to 6 µg/mL)
- binding result [5]: no binding (tested: antibody up to 6 µg/mL)
- EC50 [6]: 0.069 µg/mL
- EC50 [7]: 0.066 µg/mL
- binding result [8]: no binding (tested: antigen up to 100 nM)
- binding result [9]: no binding (tested: antigen up to 100 nM)
- Kd [12]: 287 pM
- koff [12]: 0.000293 s⁻¹
- kon [12]: 1.02e+06 M⁻¹ s⁻¹
- Kd [13]: 703 pM

Continued, in another order:

- EC50 [2]: — (“—” indicates no binding)
- EC50 [3]: — (“—” indicates no binding)
Molecule: huMOV19: control antibody huMOV19, heavy chain SEQ ID NO: 34, light chain SEQ ID NO: 35

- EC50 [6]: 0.09 µg/mL
- EC50 [7]: 0.087 µg/mL
- Kd [10]: 468 pM
B1: control antibody huMOV19 (antibody, human IgG1, kappa, V domains shown)
VH: QVQLVQSGAEVVKPGASVKISCKASGYTFTGYFMNWVKQSPGQSLEWIGRIHPYDGDTFYNQKFQGKATLTVDKSSNTAHMELLSLTSEDFAVYYCTRYDGSRAMDYWGQGTTVTVSS
VL: DIVLTQSPLSLAVSLGQPAIISCKASQSVSFAGTSLMHWYHQKPGQQPRLLIYRASNLEAGVPDRFSGSGSKTDFTLTISPVEAEDAATYYCQQSREYPYTFGGGTKLEIKR
- binding result [4]: no binding (tested: antibody up to 6 µg/mL)
- binding result [5]: no binding (tested: antibody up to 6 µg/mL)
- binding result [8]: no binding (tested: antigen up to 100 nM)
- binding result [9]: no binding (tested: antigen up to 100 nM)
